This note sets out measurements from publication PMC12297413.

This assay concerns the target HgcR (D-2-hydroxyglutarate catabolic regulator), PP4494 (Pseudomonas putida KT2440). The assay is described as follows: SEC. (SEC sorts molecules by how far they enter the pores of the column.)

The term stoichiometry N denotes the number of molecules, sites or subunits per partner or assembly.

As to “HgcR (D-2-hydroxyglutarate catabolic regulator), PP4494 (natural protein)”, the stoichiometry N was determined as 2.
